Test results published in article PMC10287724, “Structural basis of the interaction between BCL9-Pygo and LDB-SSBP complexes in assembling the Wnt enhanceosome” (Nature Communications, 2023).
Residue numbers refer to the chain shown, from its start.

How the values were obtained:
[1] = target: GST-hPygo2(58-84) (human) (UniProt Q9BRQ0); assay: BLI; GST-Pygo2(58-84) wt or mutant loaded on GST biosensors, quenched with free GST; wt or mutant MBP-LDB1-SSBP2 in solution (0.03-30 uM); Octet RED96, 30 °C; KD from steady-state analysis
[2] = target: T1, MBP-LDB1(56–285)-SSBP2(1–94) complex, SSBP2 Y72A (human, UniProt Q86U70 56-285; P81877 1-94, Y72A); assay: BLI
T1 sequence 1: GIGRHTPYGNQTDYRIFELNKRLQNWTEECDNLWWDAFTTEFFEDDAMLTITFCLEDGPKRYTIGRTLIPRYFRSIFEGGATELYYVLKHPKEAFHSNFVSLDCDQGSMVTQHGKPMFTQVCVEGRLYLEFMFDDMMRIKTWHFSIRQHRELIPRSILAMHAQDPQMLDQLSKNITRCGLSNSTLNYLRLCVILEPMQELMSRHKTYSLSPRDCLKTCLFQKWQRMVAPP
T1 sequence 2: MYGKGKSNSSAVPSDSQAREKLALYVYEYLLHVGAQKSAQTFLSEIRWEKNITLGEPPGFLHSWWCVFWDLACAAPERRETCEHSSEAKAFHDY

[3] = target: hBCL9ΔHD3-Pygo2 complex, Avi-tagged, biotinylated (human, UniProt O00512 1-1426; Q9BRQ0 1-406, lacking hBCL9(461–489) fragment, biotin on the Avi tag (BirA)); assay: BLI
[4] = target: T2, hBCL9ΔHD3-Pygo2 complex, Avi-tagged, biotinylated (human, UniProt O00512 1-1426; Q9BRQ0 1-406, lacking hBCL9(461–489) fragment, biotin on the Avi tag (BirA)); assay: BLI; Octet RED96; biotinylated Avi-tagged BCL9-Pygo2 (wt or deletion) on SA biosensors, full-length LDB1-SSBP2 in solution at 1000, 300, 100, 30 nM; 30 °C; 20 mM Tris-HCl pH 8.0, 100 mM NaCl, 10 mM DTT, 10 mg/ml BSA; steady-state analysis; details: both partners purified
T2 construct: B-cell lymphoma 9 protein (BCL9), human, full length lacking HD3 (461-489); Pygopus 2 (Pygo2), human, full length; also called hBCL9^△HD3-Pygo2; HD3-deleted BCL9; source: HEK293S GnTI- cells, co-transfected, purified (Flag beads, Superose 6 SEC), biotinylated with BirA; not shown: Avi, C-terminal, kept
T2 sequence (O00512 other isoform, or with tags, fused parts or gaps with the stated changes, chain 1 of 2): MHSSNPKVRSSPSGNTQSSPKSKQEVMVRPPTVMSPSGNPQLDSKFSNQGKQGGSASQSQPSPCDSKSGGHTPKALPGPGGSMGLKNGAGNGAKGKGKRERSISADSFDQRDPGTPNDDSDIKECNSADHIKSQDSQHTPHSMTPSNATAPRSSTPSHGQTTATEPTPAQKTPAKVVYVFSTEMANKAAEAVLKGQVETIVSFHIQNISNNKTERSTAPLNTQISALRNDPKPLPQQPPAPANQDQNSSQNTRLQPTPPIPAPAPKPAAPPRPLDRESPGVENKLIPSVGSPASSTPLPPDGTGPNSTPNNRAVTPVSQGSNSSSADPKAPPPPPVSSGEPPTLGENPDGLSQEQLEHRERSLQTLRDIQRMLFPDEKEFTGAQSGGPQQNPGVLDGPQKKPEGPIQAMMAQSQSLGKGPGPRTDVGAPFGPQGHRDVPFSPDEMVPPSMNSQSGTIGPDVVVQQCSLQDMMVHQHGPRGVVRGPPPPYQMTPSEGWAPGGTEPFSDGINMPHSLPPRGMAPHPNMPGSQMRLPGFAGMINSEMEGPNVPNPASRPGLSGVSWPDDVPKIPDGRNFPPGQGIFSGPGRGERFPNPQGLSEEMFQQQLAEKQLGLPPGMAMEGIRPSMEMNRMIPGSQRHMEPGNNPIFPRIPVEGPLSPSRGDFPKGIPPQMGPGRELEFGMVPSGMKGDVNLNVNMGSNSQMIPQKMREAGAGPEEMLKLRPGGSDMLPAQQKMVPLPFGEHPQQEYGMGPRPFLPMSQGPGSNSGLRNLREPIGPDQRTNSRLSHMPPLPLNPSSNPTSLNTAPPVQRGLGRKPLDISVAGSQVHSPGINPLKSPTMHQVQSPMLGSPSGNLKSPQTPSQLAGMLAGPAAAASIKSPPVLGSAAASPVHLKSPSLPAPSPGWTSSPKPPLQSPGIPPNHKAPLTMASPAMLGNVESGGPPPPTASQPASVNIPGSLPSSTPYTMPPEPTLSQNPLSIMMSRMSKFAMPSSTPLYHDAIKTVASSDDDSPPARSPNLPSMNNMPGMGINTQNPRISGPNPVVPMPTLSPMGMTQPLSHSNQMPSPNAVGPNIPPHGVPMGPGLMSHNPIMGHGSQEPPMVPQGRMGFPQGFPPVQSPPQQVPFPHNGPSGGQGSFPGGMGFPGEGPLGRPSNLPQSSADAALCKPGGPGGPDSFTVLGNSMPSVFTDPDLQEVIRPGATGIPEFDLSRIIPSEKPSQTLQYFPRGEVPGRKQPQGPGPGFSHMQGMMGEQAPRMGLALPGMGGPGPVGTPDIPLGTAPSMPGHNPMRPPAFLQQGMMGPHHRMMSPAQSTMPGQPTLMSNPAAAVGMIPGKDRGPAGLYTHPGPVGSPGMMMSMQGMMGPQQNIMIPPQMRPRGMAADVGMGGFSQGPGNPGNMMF
T2 sequence (Q9BRQ0 whole entry, stated change not applied, chain 2 of 2, the tested form may be a part): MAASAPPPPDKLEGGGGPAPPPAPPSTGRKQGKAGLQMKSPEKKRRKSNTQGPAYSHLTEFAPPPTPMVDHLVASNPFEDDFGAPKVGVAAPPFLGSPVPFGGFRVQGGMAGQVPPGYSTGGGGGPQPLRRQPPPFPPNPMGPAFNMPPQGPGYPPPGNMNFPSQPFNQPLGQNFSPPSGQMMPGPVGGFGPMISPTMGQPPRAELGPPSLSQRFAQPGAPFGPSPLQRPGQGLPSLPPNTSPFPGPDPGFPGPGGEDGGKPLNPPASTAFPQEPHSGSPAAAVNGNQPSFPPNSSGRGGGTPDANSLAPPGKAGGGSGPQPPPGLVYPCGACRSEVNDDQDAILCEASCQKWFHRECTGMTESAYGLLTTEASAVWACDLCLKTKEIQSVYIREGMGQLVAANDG

[5] = target: T3, Avi-tagged wt BCL9-Pygo2 complex, biotinylated (human, UniProt O00512 1-1426; Q9BRQ0 1-406, biotin on the Avi tag (BirA)); assay: as above; details: both partners purified
T3 construct: B-cell lymphoma 9 protein (BCL9), human, full length; Pygopus 2 (Pygo2), human, full length; also called Biotinylated BCL9-Pygo2; recombinant BCL9-Pygo; source: HEK293S GnTI- cells, co-transfected, purified (Flag beads, Superose 6 SEC), biotinylated with BirA; not shown: Avi, C-terminal, kept
T3 sequence (O00512 whole entry, chain 1 of 2): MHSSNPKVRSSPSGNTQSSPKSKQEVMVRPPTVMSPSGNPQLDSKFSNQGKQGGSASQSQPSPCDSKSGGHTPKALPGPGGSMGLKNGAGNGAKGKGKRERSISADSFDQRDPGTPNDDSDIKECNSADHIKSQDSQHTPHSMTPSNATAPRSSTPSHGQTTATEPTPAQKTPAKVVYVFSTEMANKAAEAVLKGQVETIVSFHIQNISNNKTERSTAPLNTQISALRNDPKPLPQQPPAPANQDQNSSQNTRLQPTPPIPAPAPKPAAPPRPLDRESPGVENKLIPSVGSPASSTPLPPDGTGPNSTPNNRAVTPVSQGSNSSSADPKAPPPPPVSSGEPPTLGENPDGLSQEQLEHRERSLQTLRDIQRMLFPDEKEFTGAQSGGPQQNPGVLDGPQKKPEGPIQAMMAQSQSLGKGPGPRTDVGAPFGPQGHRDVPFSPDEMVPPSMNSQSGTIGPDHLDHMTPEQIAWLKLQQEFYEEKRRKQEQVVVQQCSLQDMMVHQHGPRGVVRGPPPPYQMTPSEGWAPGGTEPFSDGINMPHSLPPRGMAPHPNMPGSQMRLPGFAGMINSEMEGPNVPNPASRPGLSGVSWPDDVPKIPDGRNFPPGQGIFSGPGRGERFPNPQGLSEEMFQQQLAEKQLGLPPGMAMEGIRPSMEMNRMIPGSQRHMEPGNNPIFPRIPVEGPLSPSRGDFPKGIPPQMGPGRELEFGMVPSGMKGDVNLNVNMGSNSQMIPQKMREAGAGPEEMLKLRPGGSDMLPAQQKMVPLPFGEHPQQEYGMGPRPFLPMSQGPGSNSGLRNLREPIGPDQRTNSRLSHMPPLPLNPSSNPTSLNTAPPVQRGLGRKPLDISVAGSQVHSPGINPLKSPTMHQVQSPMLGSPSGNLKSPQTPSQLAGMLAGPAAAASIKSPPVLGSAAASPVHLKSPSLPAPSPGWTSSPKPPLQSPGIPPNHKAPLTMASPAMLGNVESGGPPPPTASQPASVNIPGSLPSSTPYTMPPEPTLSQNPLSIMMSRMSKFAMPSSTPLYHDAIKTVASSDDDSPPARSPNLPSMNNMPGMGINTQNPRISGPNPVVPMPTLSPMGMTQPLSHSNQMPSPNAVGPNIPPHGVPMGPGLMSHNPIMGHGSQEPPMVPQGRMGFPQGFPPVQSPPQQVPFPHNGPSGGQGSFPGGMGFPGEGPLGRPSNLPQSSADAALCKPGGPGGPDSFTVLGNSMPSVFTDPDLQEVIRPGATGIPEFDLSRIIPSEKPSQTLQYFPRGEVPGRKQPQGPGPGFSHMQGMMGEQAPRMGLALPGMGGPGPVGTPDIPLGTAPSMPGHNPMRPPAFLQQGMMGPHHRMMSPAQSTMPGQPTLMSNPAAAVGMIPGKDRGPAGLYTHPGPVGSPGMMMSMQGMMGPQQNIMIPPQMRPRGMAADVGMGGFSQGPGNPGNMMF
T3 sequence (Q9BRQ0 whole entry, chain 2 of 2): as the sequence (Q9BRQ0 whole entry, stated change not applied, chain 2 of 2, the tested form may be a part) above

[6] = target: the molecule itself; assay: crystal structure; Pygo2(58–84) peptide incubated with LDB1-SSBP2 (co-expressed, co-purified) at 5:1; hanging drop, 100 mM Li2SO4, 100 mM sodium citrate pH 5.6, 1% PEG400, 10 mM DTT, microseeding; 2.45 Å

Work on “MBP-LDB1(56-285)-SSBP2(1-94) Y72A complex (from UniProt Q86U70 56-285; P81877 1-94)” yielded a Kd [1] of 22 µM.

LTEFAPPPTPMVDHLVASNPFEDDFGA (domain or fragment) [GST-Pygo2(58–84)] showed a Kd [2] of 22 µM.

B1: LDB1-SSBP2 complex (full-length human proteins) (complex)
chain 1: MSVGCACPGCSSKSFKLYSPKEPPNGNAFPPFHPGTMLDRDVGPTPMYPPTYLEPGIGRHTPYGNQTDYRIFELNKRLQNWTEECDNLWWDAFTTEFFEDDAMLTITFCLEDGPKRYTIGRTLIPRYFRSIFEGGATELYYVLKHPKEAFHSNFVSLDCDQGSMVTQHGKPMFTQVCVEGRLYLEFMFDDMMRIKTWHFSIRQHRELIPRSILAMHAQDPQMLDQLSKNITRCGLSNSTLNYLRLCVILEPMQELMSRHKTYSLSPRDCLKTCLFQKWQRMVAPPAEPTRQQPSKRRKRKMSGGSTMSSGGGNTNNSNSKKKSPASTFALSSQVPDVMVVGEPTLMGGEFGDEDERLITRLENTQFDAANGIDDEDSFNNSPALGANSPWNSKPPSSQESKSENPTSQASQ
chain 2: MYGKGKSNSSAVPSDSQAREKLALYVYEYLLHVGAQKSAQTFLSEIRWEKNITLGEPPGFLHSWWCVFWDLYCAAPERRETCEHSSEAKAFHDYSAAAAPSPVLGNIPPGDGMPVGPVPPGFFQPFMSPRYPGGPRPPLRIPNQALGGVPGSQPLLPSGMDPTRQQGHPNMGGPMQRMTPPRGMVPLGPQNYGGAMRPPLNALGGPGMPGMNMGPGGGRPWPNPTNANSIPYSSASPGNYVGPPGGGGPPGTPIMPSPADSTNSGDNMYTLMNAVPPGPNRPNFPMGPGSDGPMGGLGGMESHHMNGSLGSGDMDSISKNSPNNMSLSNQPGTPRDDGEMGGNFLNPFQSESYSPSMTMSV
notes: the discussion speaks of a 2:4 (LDB1:SSBP2) stoichiometry of the LDB1-SSBP2 core complex; not measured for the full-length complex; also called ChiLS; full-length LDB1-SSBP2 complex; source: HEK293S GnTI- cells, co-transfected, purified (Flag beads, Superose 6 SEC)
For B1, the Kd [3] was 0.039 µM, the binding result [4] was “binds” and the Kd [5] was 0.032 µM.

B2: human LDB1(56–285), tags removed (domain or fragment, UniProt Q86U70 56-285, looked up)
chain: T1 sequence 1
notes: chain of the crystallised complex; source: E. coli BL21 (DE3), co-expressed with SSBP2(1–94), purified (Ni-NTA, TEV cleavage, HiTrap Q, Superdex 200); not shown: His, N-terminal, cleaved; MBP, N-terminal, cleaved
B2: binds [6].

B3: human SSBP2(1–94), tag removed (domain or fragment, UniProt P81877 1-94, looked up)
chain: T1 sequence 2 with A72Y
notes: chain of the crystallised complex; not shown: His, N-terminal, cleaved
B3: binds [6].
